# Assay results from US20070020327A1.
# B1: PSA 95 PLYDMSLL (peptide)
# peptide: PLYDMSLL
# modifications: not checked
# B2: Kallikrein 216 … (peptide)
# peptide: PLVCNGVLQGI
# modifications: not checked
# B3: PSM 568 … (peptide)
# peptide: PMFKYHLTVA
# modifications: not checked
# B4: PSA 212 … (peptide)
# peptide: PLVCNGVLQGI
# modifications: not checked
# B5: PSM 550 … (peptide)
# peptide: PLYHSVYET
# modifications: not checked
# B6: PSM peptide … (position 107, 10 amino acids) (peptide)
# peptide: SVELAHYDVL
# modifications: not checked
# B7: PSM peptide … (position 615, 10 amino acids) (peptide)
# peptide: SMKHPQEMKT
# modifications: not checked
# B8: PSM peptide … (position 129, 10 amino acids) (peptide)
# peptide: SIINEDGNEI
# modifications: not checked
# B9: PSM peptide … (position 472, 10 amino acids) (peptide)
# peptide: SLVHNLTKEL
# modifications: not checked
# B10: PSM peptide … (position 338, 9 amino acids) (peptide)
# peptide: STQKVKMHI
# modifications: not checked
# B11: PSM peptide … (position 631, 10 amino acids) (peptide)
# peptide: SLFSAVKNFT
# modifications: not checked
# B12: PSA peptide SLLKNRFL (position 100, 8 amino acids) (peptide)
# peptide: SLLKNRFL
# modifications: not checked
# B13: PSA peptide … (position 67, 10 amino acids) (peptide)
# peptide: SVILLGRHSL
# modifications: not checked
# B14: PSA peptide SVTWIGAA (position 7, 8 amino acids) (peptide)
# peptide: SVTWIGAA
# modifications: not checked
# B15: PSM peptide … (position 107, 9 amino acids) (peptide)
# peptide: SVELAHYDV
# modifications: not checked
# B16: PAP peptide … (position 13, 9 amino acids) (peptide)
# peptide: SLSLGFLFL
# modifications: not checked
# B17: … (PSA, position 55, 9 amino acids) (peptide)
# peptide: WVLTAAHCI
# modifications: not checked
# B18: … (Kallikrein, position 192, 10 amino acids) (peptide)
# peptide: VTEFMLCAGL
# modifications: not checked
# B19: PSM peptide … (position 737) (peptide)
# peptide: FTVQAAAETL
# modifications: not checked
# B20: WIGAAPLI (PSA, position 10, 8 amino acids) (peptide)
# peptide: WIGAAPLI
# modifications: not checked
# B21: PSM peptide … (position 385) (peptide)
# peptide: GIDPQSGAAV
# modifications: not checked
# B22: … (PSA, position 10, 9 amino acids) (peptide)
# peptide: WIGAAPLIL
# modifications: not checked
# B23: PSA peptide … (position 221) (peptide)
# peptide: GITSWGSEPCA
# modifications: not checked
# B24: PSM peptide … (position 364) (peptide)
# peptide: GAVEPDRYVI
# modifications: not checked
# B25: … (PSM, position 434, 9 amino acids) (peptide)
# peptide: WAEENSRLL
# modifications: not checked
# B26: VVFLTLSV (PSA, position 1, 8 amino acids) (peptide)
# peptide: VVFLTLSV
# modifications: not checked
# B27: PSM peptide … (position 391) (peptide)
# peptide: GAAVVHEIV
# modifications: not checked
# B28: … (PSM, position 602, 10 amino acids) (peptide)
# peptide: VVLRKYADKI
# modifications: not checked
# B29: PSA peptide … (position 12) (peptide)
# peptide: GAAPLILSRI
# modifications: not checked
# B30: … (PSA, position 1, 9 amino acids) (peptide)
# peptide: VVFLTLSVT
# modifications: not checked
# B31: … (PAP, position 226, 10 amino acids) (peptide)
# peptide: WATEDTMTKL
# modifications: not checked
# B32: … (Kallikrein, position 47, 9 amino acids) (peptide)
# peptide: WAHCGGVLV
# modifications: not checked
# B33: PAP peptide … (position 204) (peptide)
# peptide: GIWSKVYDPL
# modifications: not checked
# B34: … (PSA, position 8, 9 amino acids) (peptide)
# peptide: VTWIGAAPL
# modifications: not checked
# B35: WIKDTIVA (PSA, position 248, 8 amino acids) (peptide)
# peptide: WIKDTIVA
# modifications: not checked
# B36: PSM peptide … (position 364) (peptide)
# peptide: GAVEPDRYV
# modifications: not checked
# B37: … (PSA, position 8, 10 amino acids) (peptide)
# peptide: VTWIGAAPLI
# modifications: not checked
# B38: … (PSA, position 131) (peptide)
# peptide: AVKVMDLPT
# modifications: not checked
# B39: … (PSM, position 365) (peptide)
# peptide: AVEPDRYVIL
# modifications: not checked
# B40: AVCGGVLV (PSA, position 44) (peptide)
# peptide: AVCGGVLV
# modifications: not checked
# B41: … (PSM, position 365) (peptide)
# peptide: AVEPDRYVI
# modifications: not checked
# B42: … (PSA, position 180) (peptide)
# peptide: CAQVHPQKVT
# modifications: not checked
# B43: CIRNKSVI (PSA, position 62) (peptide)
# peptide: CIRNKSVI
# modifications: not checked
# B44: … (PSA, position 230) (peptide)
# peptide: CALPERPSL
# modifications: not checked
# B45: … (PSA, position 62) (peptide)
# peptide: CIRNKSVIL
# modifications: not checked
# B46: … (PAP, position 274) (peptide)
# peptide: ATQIPSYKKL
# modifications: not checked
# B47: … (PSA, position 180) (peptide)
# peptide: CAQVHPQKV
# modifications: not checked
# B48: … (Kallikrein, position 234) (peptide)
# peptide: CALPEKPAV
# modifications: not checked
# B49: … (PSA, position 49) (peptide)
# peptide: VLVHPQWVLT
# modifications: not checked
# B50: … (PSA, position 134) (peptide)
# peptide: VMDLPTQEPA
# modifications: not checked
# B51: … (PSM, position 660) (peptide)
# peptide: VLRMMNDQL
# modifications: not checked
# B52: VLTAAHCI (PSA, position 56) (peptide)
# peptide: VLTAAHCI
# modifications: not checked
# B53: … (PSA, position 49) (peptide)
# peptide: VLVHPQWVL
# modifications: not checked
# B54: VLVHPQWV (Kallikrein, position 53) (peptide)
# peptide: VLVHPQWV
# modifications: not checked
# B55: … (PSM, position 12) (peptide)
# peptide: VATARRPRWL
# modifications: not checked
# B56: … (PSM, position 603) (peptide)
# peptide: VLRKYADKI
# modifications: not checked
# B57: … (PSA, position 36) (peptide)
# peptide: VLVASRGRAV
# modifications: not checked
# B58: … (Kallikrein, position 5) (peptide)
# peptide: VLSIALSVGCT
# modifications: not checked
# B59: … (PSA, position 36) (peptide)
# peptide: VLVASRGRA
# modifications: not checked
# B60: VLVHPQWV (PSA, position 49) (peptide)
# peptide: VLVHPQWV
# modifications: not checked
# B61: … (PSA, position 68) (peptide)
# peptide: VILLGRHSL
# modifications: not checked
# B62: VISNDVCA (PSA, position 174) (peptide)
# peptide: VISNDVCA
# modifications: not checked
# B63: … (PAP, position 262) (peptide)
# peptide: VLVNEILNHM
# modifications: not checked
# B64: … (PSM, position 115) (peptide)
# peptide: VLLSYPNKT
# modifications: not checked
# B65: … (PSM, position 660) (peptide)
# peptide: VLRMMNDQLM
# modifications: not checked
# B66: … (Kallikrein, position 53) (peptide)
# peptide: VLVHPQWVL
# modifications: not checked
# B67: … (PSM, position 358) (peptide)
# peptide: VIGTLRGAV
# modifications: not checked
# B68: … (Kallikrein, position 53) (peptide)
# peptide: VLVHPQWVLT
# modifications: not checked
# B69: … (PSM, position 447) (peptide)
# peptide: VAYINADSSI
# modifications: not checked
# B70: … (PSA, position 174) (peptide)
# peptide: VISNDVCAQV
# modifications: not checked
# Target: HLA-A*0201 (human)
# Assay: competition with 125I-labelled standard peptide for purified HLA, gel filtration
# Details: not given
row,binding affinity ratio (IC50 of standard peptide / IC50 of test peptide),Binder
1,0.0002,B1
2,0.002,B2
3,0.0005,B3
4,0.002,B4
5,0.0002,B5

# Same assay, conditions: scale: ratio
row,binding affinity ratio,Binder
1,0.0002,B6
2,0.0001,B7
3,0.0001,B8
4,0.0002,B9
5,0.0001,B10
6,0.001,B11
7,0.002,B12
8,0.0001,B13
9,0.0001,B14
10,0.0001,B15
11,0.02,B16

# Target: HLA-A*0201 (human)
# Assay: competition with 125I-labelled standard peptide 941.01 for purified HLA, gel filtration
# Details: remark: other sources report otherwise; scale: ratio
row,binding affinity ratio,Binder
1,0.0008,B17
2,0.0008,B18

# Same assay, conditions: scale: ratio
row,binding affinity ratio,Binder
1,0.0001,B19
2,0.0005,B20
3,0.0002,B21
4,0.0005,B22
5,0.0001,B23
6,0.0002,B24
7,0.0001,B25
8,0.0002,B26
9,0.0002,B27
10,0.0001,B28
11,0.0005,B29
12,0.0008,B30
13,0.0002,B31
14,-0.0001,B32
15,0.0002,B33
16,0.011,B34
17,0.0001,B35
18,0.0001,B36
19,0.0019,B37

# Target: HLA-A*0201 (human)
# Assay: inhibition of 125I-labelled standard peptide binding to purified HLA-A*0201, gel filtration
# Details: not given
row,binding affinity ratio (IC50 of standard peptide / IC50 of test peptide),Binder
1,0.0001,B38
2,0.0002,B39
3,0.0003,B40
4,0.0001,B41
5,0.0001,B42
6,0.0001,B43
7,0.0001,B44
8,0.0003,B45
9,0.0002,B46
10,0.0002,B47

# Same assay, conditions: remark: other sources report otherwise
row,binding affinity ratio (IC50 of standard peptide / IC50 of test peptide),Binder
1,0.0002,B48

# Target: HLA-A*0201 (human)
# Assay: competitive inhibition of 125I-labelled standard peptide binding to purified HLA, gel filtration; ratio = IC50 standard / IC50 test peptide
# Details: not given
row,binding affinity ratio,Binder
1,0.0001,B49
2,0.0001,B50
3,0.0001,B51
4,0.0001,B52
5,0.02,B53
6,0.0001,B54
7,0.0001,B55
8,0.0002,B56
9,0.0003,B57
10,0.0002,B58
11,0.0001,B59
12,0.0001,B60
13,0.0003,B61
14,0.0001,B62
15,0.0008,B63
16,0.0002,B64
17,0.0003,B65
18,0.02,B66
19,0.0002,B67
20,0.0001,B68
21,0.0001,B69

# Same assay, conditions: remark: other sources report otherwise
row,binding affinity ratio,Binder
1,0.0008,B70
